Experimental data as given in the DeepSol protein solubility set.

Assay: soluble on expression in E. coli; label from the status in PepcDB or PDB records

Sequence | soluble on expression in E. coli
MGLDTIEKGADGLDSIKSLAFVYGETDNPYTKTSELFTWLFGHEIADTVLLLLNDHIYILGSNRKVEFFGSVTGDNQSSGKVPTVSTLLRDKTDKDAGNFEKLIDHIKSAGGDVGNFVKEKFSSEFVSSWNKALEEGGVNKNDVTLAFTHLFAVKDDKEMDLIRKSAQATTASWTAARARYVEISDNEKVLIVLKIVELGVLLRVRHSVLSNQFAAFMKDSKVQQALAKYEADTCYDPIKMLIFVDRKYDSVVVPIFGIPVPFHISMIKNCSQSVEGDLTYLRINFATPGSQVGKDSGQFPHPLAHYMKEFTFRASNIKDHHSDSTAPSRNLSTAFRFIKEMQKRFKSEEAEQREKEGAVKQDKLILSQNKLNPKLNLLICPNIIQKLITGSLEAHTNGFRFLFNSFSRYTSLRAFFEEGGWSFLNAESDNEEAMDDSDDSDAYDPEEEDASAGSGSESDEDESEGEETESDDDDEGSLDSDEFVQPIFAF | not soluble
MGLIDVLKSFKSPSGREIRILLLGLDNAGKTTILKQLSSEDVQHVTPTKGFNVKTVAAMGDIRLNVWDIGGQRSIRPYWSNYYENIDTLIFVIDSNDKKRFDEMNIELGELLDEEKLRKVPVLIFANKQDLVTAASSEEITRKLNLDLLRDRTWHIQACSALKNEGINDGITWVASNLKPASKK | not soluble
MGLIKENRMDSLKVSDYMTLQAVTFSPDMSLSAALEKVVRSDNMGGPVIDAQRHVIGFLSEQDLLDKLVHASYHCQDAHLVSDCMHKEVLSVAPETSIIELAAMMKVGKPKMYPVVSDGKLVGVITRRDVLRALSKTLTNCFQHPV | not soluble
MGLKPCDYPDIKHGGLYHENMRRPYFPVAVGKYYSYYCDEHFETPSGSYWDHIHCTQDGWSPAVPCLRKCYFPYLENGYNQNHGRKFVQGKSIDVACHPGYALPKAQTTVTCMENGWSPTPRCIRVKTCSKSSIDIENGFISESQYTYALKEKAKYQCKLGYVTADGETSGSITCGKDGWSAQPTCI | soluble
MGLLTNDIIEESAWEALEKSILYYKGRPVGTVAAFDASVEALNYDQCFVRDFVSSALIFLIKGKTDIVRNFLEETLKLQPKDRQLDAYKPGRGLIPASFKVVSDNGEEYLEADFGEHAIARVTPVDSCLWWILLLRAYVVASKDFSLAYQPEFQTGIRLIMEICLANRFDMYPTLLVPDGACMIDRRLGIYGHPLELQVLFYAALRAAREMLICQGNQDVVEAIDNRLPLLCAHIRQHYWIDINRLNAIYRFKSEEYGKAAVNLFNIYVDSIPYYELDKWLPKKGGYLAGNVGPSQLDTRFFALGNLMAIISDLATEEQSQAIMTLIEDRWEDLVGDMPMKICYPALENEEYRIVTGCDPKNIPWSYHNAGSWPVLMWMLAAASVKAGKPYIAGKAIEIAQARLLEDEWPEYYDGKKGRLIGKQARKYQTWTIAGFLLAAELMKNPSLLSLISFDKLPSELVSRACEFEIGSVDASISRLEHHHHHH | soluble
MGLQTYNAKRSFDKTPEPKGTKAEKPGSSFVIQKHDARRLHYDFRLEMDGVLKSWAVTRGPSLDPEDKRLAVHVEDHPLSYGDFEGVIPKGQYGGGTVIVWDRGIWQPIGDAGKGYRKGHLEFELEGEKLKGRWHLVRMHGKPGESRENWLLIKGDDLEHHHHHH | not soluble
MGLRPVSYTDSSVTPSVDGSIVLTAASVQSMPDSEESRLYGDDATYLAEGGRRQCPYTSNGPTFMETASFKKKRSKSADIWREDSLEFSLSDLSQEHLTSNEEILGSAEEKDCEEARGMETEASPRQLSTCQRANSLGDLYAQKNSGVKANGGPRNRFSSYCRNLVSDIPDLAKHKMPPAAAEETPPYSNYNTLPCRKSHCLSEGATNPQISLSKSMQGRRAKTTQDVNTGEGSEFADSGIEGATTDTDLLSRRSNATNSSYSPPTGRAFVGSDSGSSSTGDAARQGVYENFRRELEMSTTNSESLEEAGSAHSDEQSSGTLSSPGQSDILLTAAQGTVRKAGALAVKNFLVHKKNKKVESATRRKWKHYWVSLKGCTLFFYETDGRSGIDHNSVPKHAVWVENSIVQAVPEHPKKDFVFCLSNSLGDAFLFQTTSQTELENWITAIHSACAAAVARHHHKEDTLRLLKSEIKKLEQKIDMDEKMKKMGEMQLSSVTDSKKKKTILDQIFVWEQNLEQFQMDLFRFRCYLASLQGGELPNPKRLLAFASRPTKVAMGRLGIFSVSSFHALVAARTGEIGVRRRTQAMSRSASKRRSRFSSLWGLDTTSKKKQGRPTINQVFGEGTDAVKRSLEGIFDDTVPDGKREKEVVLPSVHQHNPDCDIWVHEYFTPSWFCLPNNQPALTVVRPGDTARDTLELICKTHQLDHSAHYLRLKFLMENRVQFYIPQPEEDIYELLYKEIEICPKVTQNIHIEKSDAAADNYGFLLSSVDEDGIRRLYVNSVKETGLASKKGLKAGDEILEINNRAAGTLNSSMLKDFLSQPSLGLLVRTYPEPEGGVELLENPPHRVDGPVDLGESPLAFLTSNPGHSLSSEQGSSAETAPEEGEGPDLESSDETDHSSKSTEQVAAFCRSLHEMSPSDSSPSPQDATSPQLATTRQLSDADKLRKVICELLETERTYVKDLNCLMERYLKPLQKETFLTQDELDVLFGNLTEMVEFQVEFLKTLEDGVRLVPDLEKLEKVDQFKKVLFSLGGSFLYYADRFKLYSAFCASHTKVPKVLVKAKTDTAFKAFLDAQNPRQQHSSTLESYLIKPIQRVLKYPLLLRELFALTDAESEEHYHLDVAIKTMNKVASHINEMQKIHEEFGAVFDQLIAEQTGEKKEVADLSMGDLLLHTSVIWLNPPASLGKWKKEPELAAFVFKTAVVLVYKDGSKQKKKLVGSHRLSIYEEWDPFRFRHMIPTEALQVRALPSADAEANAVCEIVHVKSESEGRPERVFHLCCSSPESRKDFLKSVHSILRDKHRRQLLKTESLPSAQQYVPFGGKRLCALKGARPAMSRAVSAPSKSLGRRRRRLARNRFTIDSDAISASSPEKEPQQPAGGGDTDRWVEEQFDLAQYEEQDDIKETDILSDDDEFCESLKGASVDRDLQEQLQAASISQRARGRRTLDSHASRMTQLKKQAALSGINGGLESASEEVIWVRREDFAPSRKLNTEI | soluble
MGLSDWELAAARAAIARGLDEDLRYGPDVTTLATVPASATTTASLVTREAGVVAGLDVALLTLNEVLGTNGYRVLDRVEDGARVPPGEALMTLEAQTRGLLTAERTMLNLVGHLSGIATATAAWVDAVRGTKAKIRDTRKTLPGLRALQKYAVRTGGGVNHRLGLGDAALIKDNHVAAAGSVVDALRAVRNAAPDLPCEVEVDSLEQLDAVLPEKPELILLDNFAVWQTQTAVQRRDSRAPTVMLESSGGLSLQTAATYAETGVDYLAVGALTHSVRVLDIGLDM | soluble
MGLSVVILAAGKGSRMNSNKPKVLQTLAAKTLIEHVVSSVEKLNPDNIVVVTGHLKEQVEDALQGRNITFVYQQQQLGTGHAVLQALPYLKEQKVLILYGDVPLISTEVLENLVDTTNDDDLGVLTAFVENPQGLGRIVRDKFGAVTEIVEEKDANDIQRQIKEINTGIYCVHKNLLQKWLPEIKANNVQKEYYLTDIITFAKADHVSINVTHPINEFEILGVNDRTQLASLERVWQRNVAEKIMAKGVSIADPNRFDVRGNLDVGKDCWIDINVIIKGNVKLGNNVVIGANCILKNCIIEDNVRIKSNSMVDGSIIREGAIVGPFARVRPECDVKEGAVIGNFVEAKKTILGKGSKASHLTYLGDSEIGANCNIGAGVITCNYDGVNKHKTVIGDYAFIGSDSQLIAPVNIGQGATVGAGSTIVKDVPADNLAISRARQRHIDTWQRSVKKTDK | not soluble
MGLVTSILGRREYRLLQNSVTKKHLCKFMGVEFDYNDLDEITEIRVGENIFDTFESYARFAMKDTMKSIFAECKAMKTCLARIEREKQTEASMNHKIRQCYITLRRLCQLYYKFYQDLEKLKIPEHAWNVPLVKKAEKSIVVLDHAIYKFKAKGNLDVKKFREEVSHQYNIIEEVLKQFKSMDEGEYVEMRMKEEMKTEEA | not soluble
MGNCNARPATFKPKNLPMEYPKKYAMYPTRRRMRASERRTYKRDCKNLLESVAGENPFEGDEETANNYTEAIFSISIKAKVLKTYMDLIESSINEECPVNGHIQLFCNEINNLSHLYEVFFRKSIVSVDTRVEERKEIARAAYRDIKNLTIIIYLNKERSKTLLQSVMMHTEFQTHQAEKLVEHYEATFSPILKEVLPDPNAPRIHRTPTRAQIIAFWEEVRREKESGTLGTPF | not soluble
MGNQQCNWYGTLYPLCVTTTNGWGWEDQRSCIARSTCAAQPAPFGIVGSG | soluble
